Experimental data from the supplement of paper PMC5998384.

What was measured:
HeLa Kyoto [1] = assay: solubility in G1/S (NP-40 vs SDS abundance) (log2 ratio); higher = more soluble; settings: cell cycle stage: G1/S
HeLa Kyoto [2] = assay: melting temperature (median over replicates), in situ; higher = more thermally stable
HeLa Kyoto [3] = assay: solubility change mitosis vs G1/S (difference of NP-40 vs SDS log2 ratios) (log2 ratio difference); higher = more soluble in mitosis
HeLa Kyoto [4] = assay: thermal stability score vs G1/S (z-score of summed log2 fold changes over temperatures); higher = more thermally stable than in G1/S
[5] = cell cycle stage: early G1 (4.5 h after nocodazole release)
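Throughout, for melting temperature (median over replicates), in situ: HeLa Kyoto cells synchronized by double thymidine or nocodazole block, proteins quantified by TMT10plex mass spectrometry, three independent biological replicates.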
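Throughout, for solubility change mitosis vs G1/S (difference of NP-40 vs SDS log2 ratios): synchronized HeLa Kyoto cells (double thymidine block for G1/S, nocodazole release for mitosis), protein amounts in NP-40 versus SDS lysates quantified by mass spectrometry, three biological replicates.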
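Throughout, for solubility in G1/S (NP-40 vs SDS abundance): HeLa Kyoto cells arrested at G1/S by double thymidine block, proteins quantified by TMT10plex mass spectrometry in mild NP-40 versus SDS extracts, three biological replicates.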
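Throughout, for thermal stability score vs G1/S (z-score of summed log2 fold changes over temperatures): synchronized HeLa Kyoto cells, proteins quantified by TMT10plex mass spectrometry, three biological replicates, mitosis taken 0.5 h after nocodazole release, G1/S directly after double thymidine block.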

Sequence of PRRC2B (chain, as listed by the source): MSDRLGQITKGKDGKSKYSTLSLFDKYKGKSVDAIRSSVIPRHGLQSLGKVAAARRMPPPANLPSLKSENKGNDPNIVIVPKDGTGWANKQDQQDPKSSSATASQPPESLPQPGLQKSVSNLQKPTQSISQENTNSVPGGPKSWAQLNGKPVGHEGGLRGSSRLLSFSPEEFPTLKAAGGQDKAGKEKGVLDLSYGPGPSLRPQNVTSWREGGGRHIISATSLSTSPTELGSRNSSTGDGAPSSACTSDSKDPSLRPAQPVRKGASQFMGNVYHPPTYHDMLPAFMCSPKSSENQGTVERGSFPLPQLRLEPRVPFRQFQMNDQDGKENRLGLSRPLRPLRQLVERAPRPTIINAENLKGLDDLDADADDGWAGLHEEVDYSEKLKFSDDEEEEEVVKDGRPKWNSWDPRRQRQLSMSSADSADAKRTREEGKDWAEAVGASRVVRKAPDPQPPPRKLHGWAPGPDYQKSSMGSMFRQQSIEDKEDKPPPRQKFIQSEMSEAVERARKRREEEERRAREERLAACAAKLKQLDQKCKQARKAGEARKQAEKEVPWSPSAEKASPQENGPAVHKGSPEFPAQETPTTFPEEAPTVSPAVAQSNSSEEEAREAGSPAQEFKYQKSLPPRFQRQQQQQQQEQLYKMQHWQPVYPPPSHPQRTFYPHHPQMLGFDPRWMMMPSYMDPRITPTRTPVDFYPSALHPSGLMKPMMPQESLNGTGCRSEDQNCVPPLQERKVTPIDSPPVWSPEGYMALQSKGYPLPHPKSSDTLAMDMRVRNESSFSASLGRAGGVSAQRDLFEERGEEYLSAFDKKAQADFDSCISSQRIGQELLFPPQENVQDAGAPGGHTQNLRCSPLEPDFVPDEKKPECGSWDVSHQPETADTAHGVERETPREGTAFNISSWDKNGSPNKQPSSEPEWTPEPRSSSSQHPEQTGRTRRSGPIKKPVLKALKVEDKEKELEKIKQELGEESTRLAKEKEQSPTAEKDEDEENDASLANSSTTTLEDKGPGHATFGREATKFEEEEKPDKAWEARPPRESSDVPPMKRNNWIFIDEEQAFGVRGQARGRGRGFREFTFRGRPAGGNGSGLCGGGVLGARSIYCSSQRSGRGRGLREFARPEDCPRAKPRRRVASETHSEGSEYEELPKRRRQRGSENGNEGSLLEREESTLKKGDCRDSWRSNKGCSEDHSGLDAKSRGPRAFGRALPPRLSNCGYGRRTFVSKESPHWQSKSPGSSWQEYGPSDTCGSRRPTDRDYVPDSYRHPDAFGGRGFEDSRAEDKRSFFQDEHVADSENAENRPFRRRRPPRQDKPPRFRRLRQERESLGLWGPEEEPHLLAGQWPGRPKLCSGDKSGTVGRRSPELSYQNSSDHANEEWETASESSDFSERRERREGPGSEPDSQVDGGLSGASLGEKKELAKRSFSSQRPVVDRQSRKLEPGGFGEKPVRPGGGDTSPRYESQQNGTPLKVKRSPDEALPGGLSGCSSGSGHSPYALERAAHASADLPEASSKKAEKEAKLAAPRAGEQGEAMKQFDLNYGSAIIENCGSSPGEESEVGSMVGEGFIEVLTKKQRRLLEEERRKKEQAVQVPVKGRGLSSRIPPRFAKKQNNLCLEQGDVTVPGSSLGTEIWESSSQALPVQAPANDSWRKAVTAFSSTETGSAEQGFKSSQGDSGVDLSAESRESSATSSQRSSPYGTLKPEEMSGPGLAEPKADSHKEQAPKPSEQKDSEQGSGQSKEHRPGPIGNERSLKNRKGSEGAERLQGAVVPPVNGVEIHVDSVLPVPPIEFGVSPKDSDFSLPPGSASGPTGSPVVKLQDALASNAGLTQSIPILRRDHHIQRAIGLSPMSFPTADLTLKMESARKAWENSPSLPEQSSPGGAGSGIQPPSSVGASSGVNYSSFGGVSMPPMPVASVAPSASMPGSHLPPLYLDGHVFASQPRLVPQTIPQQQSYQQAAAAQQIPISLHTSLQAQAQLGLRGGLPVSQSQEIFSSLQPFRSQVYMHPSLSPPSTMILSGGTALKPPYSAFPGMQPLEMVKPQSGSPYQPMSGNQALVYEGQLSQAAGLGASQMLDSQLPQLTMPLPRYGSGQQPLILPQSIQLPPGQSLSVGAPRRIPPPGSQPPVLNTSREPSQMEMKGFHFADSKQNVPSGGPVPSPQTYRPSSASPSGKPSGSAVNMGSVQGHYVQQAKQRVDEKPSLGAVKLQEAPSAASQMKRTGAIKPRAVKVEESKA

Substance | solubility in G1/S (log2) (HeLa Kyoto [1]) | melting temperature (HeLa Kyoto [2]; cell cycle stage: G1/S) [°C] | melting temperature (HeLa Kyoto [2]; cell cycle stage: mitosis) [°C] | solubility change mitosis (log2) (HeLa Kyoto [3]) | thermal stability score (HeLa Kyoto [4]; [5]) | thermal stability score (HeLa Kyoto [4]; cell cycle stage: mitosis)
MESCYNPGLDGIIEYDDFKLNSSIVEPKEPAPETADGPYLVIVEQPKQRGFRFRYGCEGPSHGGLPGASSEKGRKTYPTVKICNYEGPAKIEVDLVTHSDPPRAHAHSLVGKQCSELGICAVSVGPKDMTAQFNNLGVLHVTKKNMMGTMIQKLQRQRLRSRPQGLTEAEQRELEQEAKELKKVMDLSIVRLRFSAFLRASDGSFSLPLKPVISQPIHDSKSPGASNLKISRMDKTAGSVRGGDEVYLLCDKVQKDDIEVRFYEDDENGWQAFGDFSPTDVHKQYAIVFRTPPYHKMKIERPVTVFLQLKRKRGGDVSDSKQFTYYPLVEDKEEVQRKRRKALPTFSQPFGGGSHMGGGSGGAAGGYGGAGGGGSLGFFPSSLAYSPYQSGAGPMGCYPGGGGGAQMAATVPSRDSGEEAAEPSAPSRTPQCEPQAPEMLQRAREYNARLFGLAQRSARALLDYGVTADARALLAGQRHLLTAQDENGDTPLHLAIIHGQTSVIEQIVYVIHHAQDLGVVNLTNHLHQTPLHLAVITGQTSVVSFLLRVGADPALLDRHGDSAMHLALRAGAGAPELLRALLQSGAPAVPQLLHMPDFEGLYPVHLAVRARSPECLDLLVDSGAEVEATERQGGRTALHLATEMEELGLVTHLVTKLRANVNARTFAGNTPLHLAAGLGYPTLTRLLLKAGADIHAENEEPLCPLPSPPTSDSDSDSEGPEKDTRSSFRGHTPLDLTCSTKVKTLLLNAAQNTMEPPLTPPSPAGPGLSLGDTALQNLEQLLDGPEAQGSWAELAERLGLRSLVDTYRQTTSPSGSLLRSYELAGGDLAGLLEALSDMGLEEGVRLLRGPETRDKLPSTAEVKEDSAYGSQSVEQEAEKLGPPPEPPGGLCHGHPQPQVH [NFKB2] | 0.18 | 47.5 | 48.3 | -0.0485 | 1.06 | 3.27
MSRGGSYPHLLWDVRKRSLGLEDPSRLRSRYLGRREFIQRLKLEATLNVHDGCVNTICWNDTGEYILSGSDDTKLVISNPYSRKVLTTIRSGHRANIFSAKFLPCTNDKQIVSCSGDGVIFYTNVEQDAETNRQCQFTCHYGTTYEIMTVPNDPYTFLSCGEDGTVRWFDTRIKTSCTKEDCKDDILINCRRAATSVAICPPIPYYLAVGCSDSSVRIYDRRMLGTRATGNYAGRGTTGMVARFIPSHLNNKSCRVTSLCYSEDGQEILVSYSSDYIYLFDPKDDTARELKTPSAEERREELRQPPVKRLRLRGDWSDTGPRARPESERERDGEQSPNVSLMQRMSDMLSRWFEEASEVAQSNRGRGRSRPRGGTSQSDISTLPTVPSSPDLEVSETAMEVDTPAEQFLQPSTSSTMSAQAHSTSSPTESPHSTPLLSSPDSEQRQSVEASGHHTHHQSDNNNEKLSPKPGTGEPVLSLHYSTEGTTTSTIKLNFTDEWSSIASSSRGIGSHCKSEGQEESFVPQSSVQPPEGDSETKAPEESSEDVTKYQEGVSAENPVENHINITQSDKFTAKPLDSNSGERNDLNLDRSCGVPEESASSEKAKEPETSDQTSTESATNENNTNPEPQFQTEATGPSAHEETSTRDSALQDTDDSDDDPVLIPGARYRAGPGDRRSAVARIQEFFRRRKERKEMEELDTLNIRRPLVKMVYKGHRNSRTMIKEANFWGANFVMSGSDCGHIFIWDRHTAEHLMLLEADNHVVNCLQPHPFDPILASSGIDYDIKIWSPLEESRIFNRKLADEVITRNELMLEETRNTITVPASFMLRMLASLNHIRADRLEGDRSEGSGQENENEDEE [DCAF6] | -0.176 | 54.7 | 54.9 | 0.0043 | -1.47 | -2.02
MSSSVEQKKGPTRQRKCGFCKSNRDKECGQLLISENQKVAAHHKCMLFSSALVSSHSDNESLGGFSIEDVQKEIKRGTKLMCSLCHCPGATIGCDVKTCHRTYHYHCALHDKAQIREKPSQGIYMVYCRKHKKTAHNSEADLEESFNEHELEPSSPKSKKKSRKGRPRKTNFKGLSEDTRSTSSHGTDEMESSSYRDRSPHRSSPSDTRPKCGFCHVGEEENEARGKLHIFNAKKAAAHYKCMLFSSGTVQLTTTSRAEFGDFDIKTVLQEIKRGKRMKCTLCSQPGATIGCEIKACVKTYHYHCGVQDKAKYIENMSRGIYKLYCKNHSGNDERDEEDEERESKSRGKVEIDQQQLTQQQLNGN [PHF6] | -0.717 | 48.6 | 50.6 | 0.284 | 1.18 | 1.95
PRRC2B | -0.236 | 51.9 | 52.2 | 0.078 | 1.22 | 3.15
MVKLAAKCILAGDPAVGKTALAQIFRSDGAHFQKSYTLTTGMDLVVKTVPVPDTGDSVELFIFDSAGKELFSEMLDKLWESPNVLCLVYDVTNEESFNNCSKWLEKARSQAPGISLPGVLVGNKTDLAGRRAVDSAEARAWALGQGLECFETSVKEMENFEAPFHCLAKQFHQLYREKVEVFRALA [IFT27] | 0.371 | 52.3 | 53.7 | -0.134 | -0.15 | -0.857
MAAAAAAVGPGAGGAGSAVPGGAGPCATVSVFPGARLLTIGDANGEIQRHAEQQALRLEVRAGPDSAGIALYSHEDVCVFKCSVSRETECSRVGKQSFIITLGCNSVLIQFATPNDFCSFYNILKTCRGHTLERSVFSERTEESSAVQYFQFYGYLSQQQNMMQDYVRTGTYQRAILQNHTDFKDKIVLDVGCGSGILSFFAAQAGARKIYAVEASTMAQHAEVLVKSNNLTDRIVVIPGKVEEVSLPEQVDIIISEPMGYMLFNERMLESYLHAKKYLKPSGNMFPTIGDVHLAPFTDEQLYMEQFTKANFWYQPSFHGVDLSALRGAAVDEYFRQPVVDTFDIRILMAKSVKYTVNFLEAKEGDLHRIEIPFKFHMLHSGLVHGLAFWFDVAFIGSIMTVWLSTAPTEPLTHWYQVRCLFQSPLFAKAGDTLSGTCLLIANKRQSYDISIVAQVDQTGSKSSNLLDLKNPFFRYTGTTPSPPPGSHYTSPSENMWNTGSTYNLSSGMAVAGMPTAYDLSSVIASGSSVGHNNLIPLANTGIVNHTHSRMGSIMSTGIVQGSSGAQGSGGGSTSAHYAVNSQFTMGGPAISMASPMSIPTNTMHYGS [CARM1] | -0.0215 | 56 | 56.3 | -0.216 | -1.1 | -1.42
MAGARAAAAAASAGSSASSGNQPPQELGLGELLEEFSRTQYRAKDGSGTGGSKVERIEKRCLELFGRDYCFSVIPNTNGDICGHYPRHIVFLEYESSEKEKDTFESTVQVSKLQDLIHRSKMARCRGRFVCPVILFKGKHICRSATLAGWGELYGRSGYNYFFSGGADDAWADVEDVTEEDCALRSGDTHLFDKVRGYDIKLLRYLSVKYICDLMVENKKVKFGMNVTSSEKVDKAQRYADFTLLSIPYPGCEFFKEYKDRDYMAEGLIFNWKQDYVDAPLSIPDFLTHSLNIDWSQYQCWDLVQQTQNYLKLLLSLVNSDDDSGLLVHCISGWDRTPLFISLLRLSLWADGLIHTSLKPTEILYLTVAYDWFLFGHMLVDRLSKGEEIFFFCFNFLKHITSEEFSALKTQRRKSLPARDGGFTLEDICMLRRKDRGSTTSLGSDFSLVMESSPGATGSFTYEAVELVPAGAPTQAAWRKSHSSSPQSVLWNRPQPSEDRLPSQQGLAEARSSSSSSSNHSDNFFRMGSSPLEVPKPRSVDHPLPGSSLSTDYGSWQMVTGCGSIQERAVLHTDSSLPFSFPDELPNSCLLAALSDRETRLQEVRSAFLAAYSSTVGLRAVAPSPSGAIGGLLEQFARGVGLRSISSNAL [MTMR14] | -0.145 | 52.8 | – | -0.0972 | -0.497 | -0.428
MSASASVGGPVPQPPPGPAAALPPGSAARALHVELPSQQRRLRHLRNIAARNIVNRNGHQLLDTYFTLHLCSTEKIYKEFYRSEVIKNSLNPTWRSLDFGIMPDRLDTSVSCFVVKIWGGKENIYQLLIEWKVCLDGLKYLGQQIHARNQNEIIFGLNDGYYGAPFEHKGYSNAQKTILLQVDQNCVRNSYDVFSLLRLHRAQCAIKQTQVTVQKIGKEIEEKLRLTSTSNELKKKSECLQLKILVLQNELERQKKALGREVALLHKQQIALQDKGSAFSAEHLKLQLQKESLNELRKECTAKRELFLKTNAQLTIRCRQLLSELSYIYPIDLNEHKDYFVCGVKLPNSEDFQAKDDGSIAVALGYTAHLVSMISFFLQVPLRYPIIHKGSRSTIKDNINDKLTEKEREFPLYPKGGEKLQFDYGVYLLNKNIAQLRYQHGLGTPDLRQTLPNLKNFMEHGLMVRCDRHHTSSAIPVPKRQSSIFGGADVGFSGGIPSPDKGHRKRASSENERLQYKTPPPSYNSALAQPVTTVPSMGETERKITSLSSSLDTSLDFSKENKKKGEDLVGSLNGGHANVHPSQEQGEALSGHRATVNGTLLPSEQAGSASVQLPGEFHPVSEAELCCTVEQAEEIIGLEATGFASGDQLEAFNCIPVDSAVAVECDEQVLGEFEEFSRRIYALNENVSSFRRPRRSSDK [UVRAG] | 0.216 | 51.7 | 52.4 | -0.117 | 0.204 | -0.16
MVDKKLVVVFGGTGAQGGSVARTLLEDGTFKVRVVTRNPRKKAAKELRLQGAEVVQGDQDDQVIMELALNGAYATFIVTNYWESCSQEQEVKQGKLLADLARRLGLHYVVYSGLENIKKLTAGRLAAAHFDGKGEVEEYFRDIGVPMTSVRLPCYFENLLSHFLPQKAPDGKSYLLSLPTGDVPMDGMSVSDLGPVVLSLLKMPEKYVGQNIGLSTCRHTAEEYAALLTKHTRKVVHDAKMTPEDYEKLGFPGARDLANMFRFYALRPDRDIELTLRLNPKALTLDQWLEQHKGDFNLL [NMRAL1] | 0.417 | 48.9 | 49.3 | -0.127 | 4.25 | 3.59
MPTVEELYRNYGILADATEQVGQHKDAYQVILDGVKGGTKEKRLAAQFIPKFFKHFPELADSAINAQLDLCEDEDVSIRRQAIKELPQFATGENLPRVADILTQLLQTDDSAEFNLVNNALLSIFKMDAKGTLGGLFSQILQGEDIVRERAIKFLSTKLKTLPDEVLTKEVEELILTESKKVLEDVTGEEFVLFMKILSGLKSLQTVSGRQQLVELVAEQADLEQTFNPSDPDCVDRLLQCTRQAVPLFSKNVHSTRFVTYFCEQVLPNLGTLTTPVEGLDIQLEVLKLLAEMSSFCGDMEKLETNLRKLFDKLLEYMPLPPEEAENGENAGNEEPKLQFSYVECLLYSFHQLGRKLPDFLTAKLNAEKLKDFKIRLQYFARGLQVYIRQLRLALQGKTGEALKTEENKIKVVALKITNNINVLIKDLFHIPPSYKSTVTLSWKPVQKVEIGQKRASEDTTSGSPPKKSSAGPKRDARQIYNPPSGKYSSNLGNFNYEQRGAFRGSRGGRGWGTRGNRSRGRLY [API5] | 0.323 | 53.7 | 52.8 | 0.0442 | 1.42 | 1.11
MFSWLKRGGARGQQPEAIRTVTSALKELYRTKLLPLEEHYRFGAFHSPALEDADFDGKPMVLVAGQYSTGKTSFIQYLLEQEVPGSRVGPEPTTDCFVAVMHGDTEGTVPGNALVVDPDKPFRKLNPFGNTFLNRFMCAQLPNQVLESISIIDTPGILSGAKQRVSRGYDFPAVLRWFAERVDLIILLFDAHKLEISDEFSEAIGALRGHEDKIRVVLNKADMVETQQLMRVYGALMWALGKVVGTPEVLRVYIGSFWSQPLLVPDNRRLFELEEQDLFRDIQGLPRHAALRKLNDLVKRARLVRVHAYIISYLKKEMPSVFGKENKKKQLILKLPVIFAKIQLEHHISPGDFPDCQKMQELLMAHDFTKFHSLKPKLLEALDEMLTHDIAKLMPLLRQEELESTEVGVQGGAFEGTHMGPFVERGPDEAMEDGEEGSDDEAEWVVTKDKSKYDEIFYNLAPADGKLSGSKAKTWMVGTKLPNSVLGRIWKLSDVDRDGMLDDEEFALASHLIEAKLEGHGLPANLPRRLVPPSKRRHKGSAE [EHD2] | 0.231 | 48.9 | 49.5 | -0.164 | 1.58 | 2.05
